Measurements taken from the supplement of paper PMC10899765.

These sequences were tested on MCF10A (assay: one-nucleolus phenotype percent effect (relative to siNT 0% and siNOL11 100%); higher = more cells with one nucleolus (ribosome biogenesis inhibition)). Settings: 20 nM; 72 h.
Method: (§1)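 After 72 h, cells were fixed and stained with Hoechst and anti-fibrillarin, and nucleoli per nucleus were counted with CellProfiler. Values are plate-adjusted percent effect for the one-nucleolus and 5+ nucleoli phenotypes, normalised to siNT (0%) and to the positive controls siNOL11 or siKIF11 (100%), as the mean of biological triplicates. Percent viability is the nuclei count relative to siNT.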

Point of comparison: “CAGGGAACAGCUGGGUGAGCUGCU [hsa-miR-6750-5p]”, “one-nucleolus phenotype percent effect” value -6.66%. Against it:
- AGAAGGCCUUUCCAUCUCUGU [hsa-miR-4493] — higher, 41.7%
- CAGGAGUGGGGGGUGGGACGU [hsa-miR-4433b-3p] — higher, -5.4%
- AGACUGACGGCUGGAGGCCCAU [hsa-miR-4513] — lower, -13.8%
- GCAGGUGCUCACUUGUCCUCCU [hsa-miR-764] — higher, 49.3%
- ACGGAGACGACAAGACUGUGCUG [hsa-miR-5091] — higher, 3.3%
- CUAUACAAUCUAUUGCCUUCCC [hsa-let-7f-1-3p] — higher, -6.49%
- AAUUGCACGGUAUCCAUCUGUA [hsa-miR-363-3p] — higher, 5.76%
- AAAAGUGCUUACAGUGCAGGUAG [hsa-miR-106a-5p] — lower, -17.6%
- UGGCUGUUGGAGGGGGCAGGC [hsa-miR-4687-3p] — higher, 25.6%
- GGUAUCCGUUUGGGGAUGGU [hsa-miR-3713] — higher, 11.4%
- UGUGGGACUGCAAAUGGGAG [hsa-miR-4648] — higher, 19.7%
- AGUAGAGAGGAAAAGUUAGGGUC [hsa-miR-6832-5p] — lower, -10.8%
- GGGACCAUCCUGCCUGCUGUGG [hsa-miR-3619-3p] — lower, -10.4%
- UUCAAGUAAUCCAGGAUAGGCU [hsa-miR-26a-5p] — higher, -6.05%
- ACUCAUUCUCCUCUGUCCAG [hsa-miR-6758-3p] — lower, -26.2%
- UUCGGUAUACUUUGUGAAUUGG [hsa-miR-4798-5p] — higher, 0.862%
- CGCCGCGCGCAUCGGCUCAGC [hsa-miR-6869-3p] — higher, 4.08%
- UUACGGACCAGCUAAGGGAGGC [hsa-miR-4788] — higher, -0.639%
- UGAUUGUCUUCAUAUCUAGAAC [hsa-miR-4782-3p] — higher, -0.93%
- AAAAGUACUUGCGGAUUU [hsa-miR-548av-5p] — lower, -23.4%
- ACAGGUGAGGUUCUUGGGAGCC [hsa-miR-125a-3p] — higher, 5.16%
- AAUGCACCCGGGCAAGGAUUCU [hsa-miR-501-3p] — higher, 10.8%
- CCCAGCAGGACGGGAGCG [hsa-miR-4530] — lower, -26.2%
- UUCUCAAGAGGGAGGCAAUCAU [hsa-miR-514b-5p] — lower, -22.9%
- UAAGUGCUUCCAUGUUUUAGUAG [hsa-miR-302b-3p] — lower, -12.2%
- CGAGGGCAUUUCAUGAUGCAGGC [hsa-miR-3616-3p] — higher, 43.6%
- CCCUGUGCCCGGCCCACUUCUG [hsa-miR-1914-5p] — lower, -13.8%
- AACUCACGAAGUAUACCGAAGU [hsa-miR-4798-3p] — higher, -1.81%
- AUCUAAAUGCAGCAUGCCAGUC [hsa-miR-4799-5p] — higher, -0.603%

The sequences below were run on MCF10A (assay: percent viability (nuclei count relative to siNT); higher = more viable cells). Settings: 20 nM; 72 h.
Method: as §1

Point of comparison: UUCACAAGGAGGUGUCAUUUAU [hsa-miR-513b], percent viability 62.4%. Against it:
- AGCUCGGUCUGAGGCCCCUCAGU [hsa-miR-423-3p] — lower, 56.6%
- CUCCUAUAUGAUGCCUUUCUUC [hsa-miR-337-3p] — lower, 52%
- UGAUAUGUUUGAUAUUGGGUU [hsa-miR-190b] — lower, 36%
- CCUGCGUGUUUUCUGUCCAA [hsa-miR-4520b-5p] — lower, 51%
- CAAUCACUAACUCCACUGCCAU [hsa-miR-34b-3p] — lower, 50.1%
- UUGCUUGAACCCAGGAAGUGGA [hsa-miR-1273e] — lower, 29%
- CACGGCAAAAGAAACAAUCCA [hsa-miR-4445-3p] — lower, 52.2%
- AUAUGCCUGGCUAGCUCCUC [hsa-miR-4633-5p] — lower, 31.4%
- AAAGGUAACUGUGAUUUUUGCU [hsa-miR-548ba] — higher, 146%
- UUAUAAUACAACCUGAUAAGUG [hsa-miR-374a-5p] — higher, 100%
- AGGCUCUAACUGGCUUUCCCUGCA [hsa-miR-6822-3p] — lower, 37.9%
- AAAAGUAAUUGCGGUUUUUGCC [hsa-miR-548o-5p] — higher, 119%
- AUGGAGAAGGCUUCUGA [hsa-miR-4531] — lower, 32.2%
- ACGGGUUAGGCUCUUGGGAGCU [hsa-miR-125b-1-3p] — lower, 53.9%
- ACUCAAAAUGGGGGCGCUUUCC [hsa-miR-373-5p] — higher, 83.7%
- AACAUUCAACGCUGUCGGUGAGU [hsa-miR-181a-5p] — higher, 76.4%
- AAAUGUCACCUUUUUGAGAGGA [hsa-miR-513b-3p] — higher, 94.2%
- UGGGCGAGGGCGGCUGAGCGGC [hsa-miR-6729-5p] — lower, 29%
- AGGAGGCAUCUUGAGAAAUGGA [hsa-miR-3612] — lower, 16.9%
- ACUGAGCCUCUCUCUCUCCAG [hsa-miR-6751-3p] — higher, 65.4%
- UUUGUAUGGAUAUGUGUGUGUAU [hsa-miR-3149] — lower, 37.6%
- CACACACACACACACACGUAU [hsa-miR-8485] — lower, 15.8%
- CUUUCAGUCGGAUGUUUGCAGC [hsa-miR-30a-3p] — higher, 86.1%
- CAAGUCUUAUUUGAGCACCUGUU [hsa-miR-1264] — higher, 70%
- GUGCAUUGCUGUUGCAUUGC [hsa-miR-33b-5p] — lower, 48.5%
- CAAAGACUGCAAUUACUUUUGCG [hsa-miR-548u] — higher, 75.7%
- UAUUCAGAAAGGUGCCAGUCA [hsa-miR-892c-5p] — higher, 71.8%
- UGGGAGGAGGGGAUCUUGGG [hsa-miR-7106-5p] — lower, 34.9%
- AGAAGGCCUUUCCAUCUCUGU [hsa-miR-4493] — lower, 45.9%
- CAGGAGUGGGGGGUGGGACGU [hsa-miR-4433b-3p] — higher, 65.1%
- AGACUGACGGCUGGAGGCCCAU [hsa-miR-4513] — lower, 43.7%
- GCAGGUGCUCACUUGUCCUCCU [hsa-miR-764] — lower, 23.9%
- ACGGAGACGACAAGACUGUGCUG [hsa-miR-5091] — lower, 32.1%
- CUAUACAAUCUAUUGCCUUCCC [hsa-let-7f-1-3p] — lower, 39.2%
- AAUUGCACGGUAUCCAUCUGUA [hsa-miR-363-3p] — higher, 63.9%
- AAAAGUGCUUACAGUGCAGGUAG [hsa-miR-106a-5p] — lower, 48.8%
- UGGCUGUUGGAGGGGGCAGGC [hsa-miR-4687-3p] — lower, 23.1%
- GGUAUCCGUUUGGGGAUGGU [hsa-miR-3713] — lower, 23.5%
- UGUGGGACUGCAAAUGGGAG [hsa-miR-4648] — lower, 41.5%
- AGUAGAGAGGAAAAGUUAGGGUC [hsa-miR-6832-5p] — higher, 64.7%
- GGGACCAUCCUGCCUGCUGUGG [hsa-miR-3619-3p] — lower, 44.4%
- UUCAAGUAAUCCAGGAUAGGCU [hsa-miR-26a-5p] — higher, 103%
- ACUCAUUCUCCUCUGUCCAG [hsa-miR-6758-3p] — higher, 147%
- UUCGGUAUACUUUGUGAAUUGG [hsa-miR-4798-5p] — higher, 78.1%
- CAGGGAACAGCUGGGUGAGCUGCU [hsa-miR-6750-5p] — lower, 60.6%
- CGCCGCGCGCAUCGGCUCAGC [hsa-miR-6869-3p] — lower, 28.8%
- UUACGGACCAGCUAAGGGAGGC [hsa-miR-4788] — lower, 43.7%
- UGAUUGUCUUCAUAUCUAGAAC [hsa-miR-4782-3p] — lower, 62%
- AAAAGUACUUGCGGAUUU [hsa-miR-548av-5p] — higher, 77.9%
- ACAGGUGAGGUUCUUGGGAGCC [hsa-miR-125a-3p] — the same, 62.4%
- AAUGCACCCGGGCAAGGAUUCU [hsa-miR-501-3p] — lower, 48.2%
- CCCAGCAGGACGGGAGCG [hsa-miR-4530] — higher, 111%
- UUCUCAAGAGGGAGGCAAUCAU [hsa-miR-514b-5p] — lower, 43.1%
- UAAGUGCUUCCAUGUUUUAGUAG [hsa-miR-302b-3p] — higher, 74.9%
- CGAGGGCAUUUCAUGAUGCAGGC [hsa-miR-3616-3p] — lower, 24.6%
- CCCUGUGCCCGGCCCACUUCUG [hsa-miR-1914-5p] — higher, 90.2%
- AACUCACGAAGUAUACCGAAGU [hsa-miR-4798-3p] — lower, 48.2%
- AUCUAAAUGCAGCAUGCCAGUC [hsa-miR-4799-5p] — lower, 59.9%
